# Assays:
# L-selectin = molecular target: T1, L-selectin (Homo sapiens, UniProt P14151 P14151:39-332); test: EMSA; binding not detectable under the same conditions
# T1 sequence: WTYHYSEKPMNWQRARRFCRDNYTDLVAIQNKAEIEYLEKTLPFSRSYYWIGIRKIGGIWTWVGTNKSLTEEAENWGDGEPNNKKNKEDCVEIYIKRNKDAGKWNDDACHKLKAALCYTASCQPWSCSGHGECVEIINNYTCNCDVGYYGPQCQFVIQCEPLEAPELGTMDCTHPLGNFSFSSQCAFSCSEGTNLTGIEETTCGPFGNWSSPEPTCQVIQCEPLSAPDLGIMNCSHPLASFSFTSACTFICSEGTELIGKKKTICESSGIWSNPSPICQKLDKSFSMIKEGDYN
# From the text: Protein-bound TA and unbound TA were quantified using ImageJ software. The binding curves were generated assuming a single binding site curve fits using the Graph Pad Prism software.
# To evaluate the binding affinity of ESTA-1 to all selectins, an electrophoretic mobility shift assay (EMSA) was utilized. To determine the binding constant, fixed amounts of ESTA-1 was mixed with increasing amounts of recombinant protein (E-, P-, and L-selectin). ESTA-1 (4.6 pmoles) and recombinant human selectin protein (up to 19 pmoles) were incubated and subjected to electrophoresis at 4° C. The gels were stained with SYBR Gold nucleic acid stain and densitometric analysis of the unbound ESTA-1 was plotted using E-selectin or P-selectin recombinant protein. […] As expected, the amounts of ESTA-1/E-selectin complexes reached saturation at a molar ratio of 1:1, when both of the binding molecules are at a concentration of 500 nM. Based on the densitometric analysis, the binding constant calculated for the ESTA-1 binding to E-selectin was 47 nM (FIG. 11A). […] ESTA-1 binding to L-selectin was not detectable under the same conditions. […] To further validate the binding affinity of ESTA-1 under biological conditions, different concentrations of ESTA-1 (50-200 nM) were incubated with ES-Endo cells induced with doxycycline. […] ESTA-1 binding was analyzed by fluorescent imaging.
# P-selectin = P-selectin (Homo sapiens, UniProt P16109 P16109:42-771); test: EMSA; estimated; PBS with Ca2+ and Mg2+, 5 mM MgCl2, 1% NP40
# P-selectin, sequence (P16109 42-771, one chain of several): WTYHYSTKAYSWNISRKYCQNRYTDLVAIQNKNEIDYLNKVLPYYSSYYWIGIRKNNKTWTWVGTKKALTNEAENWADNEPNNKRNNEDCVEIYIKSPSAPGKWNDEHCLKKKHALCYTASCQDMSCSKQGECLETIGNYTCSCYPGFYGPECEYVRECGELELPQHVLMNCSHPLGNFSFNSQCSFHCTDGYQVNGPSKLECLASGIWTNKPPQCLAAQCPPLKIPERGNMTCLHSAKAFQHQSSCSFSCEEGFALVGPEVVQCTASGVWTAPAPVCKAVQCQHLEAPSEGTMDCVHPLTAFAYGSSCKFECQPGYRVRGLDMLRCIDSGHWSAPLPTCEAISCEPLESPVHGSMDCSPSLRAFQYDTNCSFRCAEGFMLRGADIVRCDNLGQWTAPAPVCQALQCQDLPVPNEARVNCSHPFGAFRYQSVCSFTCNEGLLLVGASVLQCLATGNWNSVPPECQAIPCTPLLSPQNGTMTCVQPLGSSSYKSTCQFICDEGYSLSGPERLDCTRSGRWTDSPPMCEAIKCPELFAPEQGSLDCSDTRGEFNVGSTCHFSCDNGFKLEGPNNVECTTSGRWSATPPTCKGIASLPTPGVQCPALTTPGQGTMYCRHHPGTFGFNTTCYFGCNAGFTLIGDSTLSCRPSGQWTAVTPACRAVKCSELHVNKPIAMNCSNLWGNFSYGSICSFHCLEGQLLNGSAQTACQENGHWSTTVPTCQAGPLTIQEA
# Experimental: Equal amounts of ESTA-1 (4.6 pmoles) were incubated with increasing concentrations of the recombinant selectin proteins (0-19 pmoles) in a total volume of 10.5 μl of PBS supplemented with Ca2+ and Mg2+, 5 mM MgCl2, and 1% NP40 at room temperature for 45 minutes. The reaction mixtures were loaded onto 6% polyacrylamide tris borate gels and run at 100 V for 90 minutes at 4° C. The gel was stained with SYBR Gold nucleic acid staining dye and visualized using the Fluor Chem 8800 chemimager (Alpha Innotech). Protein-bound TA and unbound TA were quantified using ImageJ software. The binding curves were generated assuming a single binding site curve fits using the Graph Pad Prism software.
# To evaluate the binding affinity of ESTA-1 to all selectins, an electrophoretic mobility shift assay (EMSA) was utilized. To determine the binding constant, fixed amounts of ESTA-1 was mixed with increasing amounts of recombinant protein (E-, P-, and L-selectin). ESTA-1 (4.6 pmoles) and recombinant human selectin protein (up to 19 pmoles) were incubated and subjected to electrophoresis at 4° C. The gels were stained with SYBR Gold nucleic acid stain and densitometric analysis of the unbound ESTA-1 was plotted using E-selectin or P-selectin recombinant protein. […] Based on the densitometric analysis, the binding constant calculated for the ESTA-1 binding to E-selectin was 47 nM (FIG. 11A). […]
# [1] = molecular target: T2, E-selectin on ES-Endo cells (Tet-on HMVEC) (UniProt P16581 P16581:22-610); test: cell_activity; inhibition of HL-60 adhesion to ES-Endo, 4 C; 80% at 100 nM
# T2 sequence: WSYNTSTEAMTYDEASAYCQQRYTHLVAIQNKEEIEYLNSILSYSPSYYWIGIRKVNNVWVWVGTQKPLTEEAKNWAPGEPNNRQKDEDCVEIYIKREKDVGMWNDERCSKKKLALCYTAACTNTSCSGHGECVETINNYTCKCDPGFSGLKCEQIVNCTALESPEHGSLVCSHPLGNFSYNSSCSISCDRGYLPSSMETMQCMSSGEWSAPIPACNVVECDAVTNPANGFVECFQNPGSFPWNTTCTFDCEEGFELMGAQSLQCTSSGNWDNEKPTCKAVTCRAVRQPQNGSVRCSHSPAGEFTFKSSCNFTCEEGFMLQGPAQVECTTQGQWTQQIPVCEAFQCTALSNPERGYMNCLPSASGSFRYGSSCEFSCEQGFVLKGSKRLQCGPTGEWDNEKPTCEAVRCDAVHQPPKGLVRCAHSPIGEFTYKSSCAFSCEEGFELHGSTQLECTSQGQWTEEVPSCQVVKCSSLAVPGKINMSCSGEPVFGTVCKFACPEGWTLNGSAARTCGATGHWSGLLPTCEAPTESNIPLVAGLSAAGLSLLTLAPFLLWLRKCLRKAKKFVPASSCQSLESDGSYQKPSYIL
# Experimental: On the basis of specific binding of ESTA-1 to E-selectin, a study was done to determine the effect of ESTA-1 on adhesion of sLe^X positive cells to endothelial cells. Confluent E-selectin expressing ES-Endo cells were incubated with doxycycline for 5 hours followed by ESTA-1 (50 nM, 100 nM) for 20 minutes. HL-60 cells a human promyelomonocytic cell line, or cells from two breast cancer cell lines (MDA-MB-231 and MDA-MB-468: 10^5 cells) suspended in RPMI containing 1% FBS were added to ES-Endo and incubated at 4° C. for 30 minutes with mild agitation. The unbound cells were washed off with RPMI containing 1% FBS. The number of cells that adhered to the ES-Endo was counted on at least 3 random areas using a light microscope (final magnification 100×) and expressed as the mean of triplicate experiments. […] HL-60 cell adhesion to ES-Endo increased by 5-fold when E-selectin expression was induced by doxycycline (FIG. 12A). Pretreatment of the E-selectin expressing ES-Endo with ESTA-1 inhibited HL-60 adhesion by 80% at 100 nM ESTA-1 (FIG. 12A). […] Lastly, we tested cytotoxicity associated with ESTA-1 treatment in ES-Endo cells. ES-Endo cells were first incubated with doxycycline for 5 hours and then with increasing concentration of ESTA-1 (up to 200 nM) for 48 hours. MTT assay was performed to test cell viability.
binder,measurement,setting,value
"ESTA-1 (TA-1) (ssDNA, 5'-monothiophosphate (Rp) on all dA except in primer-binding region) DNA: CGCTCGGATCGATAAGCTTCGATCCCACTCTCCCGTTCACTTCTCCTCACGTCACGGATCCTCTAGAGCACTG",binding result,L-selectin,no binding
same,Kd,P-selectin,~13 µM
same,IC50,[1],~0.063 µM

# Source: US20120039810, “APTAMER-CONTAINING COMPOSITIONS AND METHODS FOR TARGETING E-SELECTIN” (published 2012)
